Measurements as given in PMC5625035, “The Rev1 interacting region (RIR) motif in the scaffold protein XRCC1 mediates a low-affinity interaction with polynucleotide kinase/phosphatase (PNKP) during DNA single-strand break repair” (The Journal of Biological Chemistry, 2017).

B1: acrylodan-labeled PNKP (PNKP^WFX402-AC) (enzyme)
chain: not shown
modifications: acrylodan (6-acryloyl-2-dimethylaminonaphthalene, AC) label, site not stated

What was measured:
[1] = target: T1, full-length XRCC1-His (recombinant, from E. coli) (human, UniProt P18887 1-633); assay: other fluorescence titration; quenching of acrylodan fluorescence of PNKP-AC (excitation 380 nm, emission 485-490 nm) by added XRCC1 protein; 25 °C; PNKP-AC 20 nM with full-length XRCC1-His, 80 nM with His-XRCC1^161–406 and in the emission scans with His-XRCC1^FFF; nonlinear regression, unimodal binding; conditions: both partners purified
T1 construct: XRCC1, human, full length, not phosphorylated (made in E. coli); also called wild-type XRCC1; X-ray repair cross-complementing 1; source: E. coli (pET16b-XH), purified

[2] = target: B1; assay: as above; conditions: both partners purified

T1 sequence (P18887 whole entry): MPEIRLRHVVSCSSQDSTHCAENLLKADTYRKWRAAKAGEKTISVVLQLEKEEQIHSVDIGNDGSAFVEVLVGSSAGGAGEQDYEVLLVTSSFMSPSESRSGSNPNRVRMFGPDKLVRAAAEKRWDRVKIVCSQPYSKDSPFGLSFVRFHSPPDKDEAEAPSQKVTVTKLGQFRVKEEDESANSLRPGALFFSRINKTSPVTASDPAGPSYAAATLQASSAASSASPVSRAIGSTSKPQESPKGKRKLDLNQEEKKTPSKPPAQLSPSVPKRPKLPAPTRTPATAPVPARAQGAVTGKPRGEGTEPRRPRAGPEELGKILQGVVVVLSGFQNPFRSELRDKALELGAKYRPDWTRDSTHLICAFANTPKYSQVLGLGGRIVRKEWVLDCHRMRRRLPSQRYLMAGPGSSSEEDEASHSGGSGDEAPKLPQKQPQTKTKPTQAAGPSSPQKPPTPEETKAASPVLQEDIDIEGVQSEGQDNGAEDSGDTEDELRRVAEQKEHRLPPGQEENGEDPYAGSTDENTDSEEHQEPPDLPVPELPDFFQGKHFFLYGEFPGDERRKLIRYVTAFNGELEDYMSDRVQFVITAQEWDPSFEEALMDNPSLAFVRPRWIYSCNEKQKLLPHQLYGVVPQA

Row | Kd [1] | Kd [2] | Binder
1 | ~30 nM | – | B1
2 | – | ~95 nM | His-XRCC1^161–406 (domain or fragment) PSQKVTVTKLGQFRVKEEDESANSLRPGALFFSRINKTSPVTASDPAGPSYAAATLQASSAASSASPVSRAIGSTSKPQESPKGKRKLDLNQEEKKTPSKPPAQLSPSVPKRPKLPAPTRTPATAPVPARAQGAVTGKPRGEGTEPRRPRAGPEELGKILQGVVVVLSGFQNPFRSELRDKALELGAKYRPDWTRDSTHLICAFANTPKYSQVLGLGGRIVRKEWVLDCHRMRRRLPSQRYLMAGP
